Laboratory results as given in patent US20210369812A1, “OSTEOINDUCTIVE PEPTIDES, COMPOSITIONS, IMPLANTS, AND METHODS OF USE” (The Board of Regents of the University of Oklahoma, priority 2018, published 2021).
“Also recorded” adds a separate entry of the source.

Tests used:
BMPR1A = target: T1, BMPR1A (Homo sapiens, UniProt P36894); assay: Enzyme-linked immune sorbent assay for receptor binding (BMPR1A); details: peptide on p3 of M13 phage; absorbance 450 nm; n=4; vs wild type phage
T1 construct: purchased G&P Biosciences
Excerpt: Groups having the same lowercase letter assigned (above the bar) were not statistically different from each other. Groups having different letters assigned (above the bar) were statistically different from each other. […] The primary antibody was mouse anti-g3p (p8) IgG. The secondary antibody was anti-mouse IgG conjugated with horseradish peroxidase. The substrate, 3,3′,5,5′-Tetramethylbenzidine was detected at 450 nm after stopping the reaction with 1 M HCl.
Blocking buffer (0.1 M NaHCO3 (pH 8.6), 5 mg/ml BSA. Filter sterilized, stored at 4° C.) was prepared. TBS (50 mM Tris-HCl (pH 7.5), 150 mM NaCl, autoclaved, stored at room temperature) was prepared. Separate solutions of the target receptors were then made. For BMPR1A, a 10 μg/ml stock solution was made. For BMPR2, a 10 μg/ml solution was also made. Separate wells with n=4 for each different peptide bearing phage group were then coated with one of the receptors. The coating was done by adding 100 μl of the target solution to wells of a 96-well plate followed by swirling until the surface was completely wet. The plates were then allowed to incubate overnight at 4° C. with gentle agitation in a humidified container (a plastic box lined with damp paper towels). Any excess target solution was then removed, and the plate was slapped face-down on a clean paper towel. The wells of the plate were then blocked with 200 μl of blocking buffer for 1 hour at room temperature. […] The blocking buffer was then removed from each plate followed by 5 washes with 200 μl of TBST. Each time the plate was slapped against a clean section of paper towel face-down. […] After a brief pilot test, it should be noted that using 10^10 phage/ml was determined to work best, but other concentrations of virus also worked consistently. […] Then, […] of freshly prepared 3,3′,5,5′-Tetramethylbenzidine (TMB) was added to each well and the absorbance at 370 nm and 652 nm was monitored for 1 hour using an ELISA plate reader. […] The absorbance at 450 nm for each well was then measured.

BMPR2 = target: T2, BMPR2 (Homo sapiens, UniProt Q13873); assay: Biopanning of Ph.D.-12 phage library on immobilized BMPR2-Fc; format: binding; details: peptide displayed on p3 of M13 phage; 3 rounds of panning
T2 construct: purchased G&P Biosciences
T2 sequence (Q13873 27-150 limits assumed): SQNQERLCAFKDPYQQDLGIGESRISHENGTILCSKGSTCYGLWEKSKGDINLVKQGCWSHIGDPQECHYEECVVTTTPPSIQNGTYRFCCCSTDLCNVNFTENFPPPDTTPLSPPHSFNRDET
Procedure: The Ph.D.™-12 phage library was diluted in tris-buffered saline mixed with Tween-20 (TBS+0.1% v/v Tween-20 and abbreviated TBST) for a final concentration of 2×10^11 phage in 1 mL of TBST. The diluted library was then pipetted onto one of the wells of a 12-well poly-L-lysine plate followed by rocking the plate gently for 60 minutes at room temperature. […] This supernatant served as the starting phage library for subsequent binding selections. The phages which stuck to the plate were discarded.
This procedure is only applicable if the charge of the desired protein to be immobilized is negative, determined by checking the pI value of the protein. […]. This procedure was written for 12-well plates coated in poly-L-lysine (positively charged). Separate solutions of BMPR1A-Fc and BMPR2-Fc were prepared at 80 μg/ml in Tris-buffered saline (pH 7.5). In separate wells and on separate poly-L-lysine coated 12-well plates, 0.3 ml of each solution of receptor was added. The solutions of BMPR1A-Fc and BMPR2-Fc were swirled around the plate surface until the entire surface was wet. The plates were then incubated overnight at 4° C. with gentle agitation in a humidified container (a sealed plastic box with damp paper towels). Each individual receptor was now immobilized.
The following selection procedure is based off of the direct coating procedure outlined in the Ph.D.™-12 Phage Display Libraries instructional manual (New England Biolabs) with some alterations. This procedure was carried out after immobilizing the targets BMPR1A-Fc and BMPR2-Fc in a 12-well poly-L-lysine coated plate. A stock solution of tetracycline was prepared (20 mg/ml in 1:1 ethanol:water). The coating solution containing the target receptors was poured off followed by firmly slapping the plates face down on a clean paper towel. Each well was then filled with blocking buffer (0.1 M NaHCO3 (pH 8.6), 5 mg/mL BSA, 0.02% NaN3. Filter sterilize, store at 4° C.) and incubated for 1 hour at 4° C. The blocking solution was then poured off followed by firmly slapping the plates down against a clean paper towel. Each plate was washed rapidly 6 times with Tris-buffered saline mixed with Tween-20 (TBS+0.1% v/v Tween-20). The plate was slapped against a clean paper towel each time. 1 ml of the phage library created from the negative selection process was then pipetted onto each of the target coated wells. The plates were then rocked gently at room temperature for 60 min. The non-binding phages were then discarded by pouring off the supernatant and slapping the plate face-down on a clean paper towel. The plate was then washed 10 times with TBST followed by slapping the plate face-down on a clean paper towel each time (a clean section of paper towel was used each time to prevent cross-contamination). The bound phages were then eluted by incubating with a nonspecific disruption buffer (0.2 M Glycine-HCl (pH 2.2), 1 mg/ml bovine serum albumin (BSA) for 15 minutes. The eluate (immersed in the disruption buffer) was then pipetted into a microcentrifuge tube followed by neutralization with 150 μl of 1 M Tris-HCl (pH 9.1). A small portion (˜1 μl) of this eluate could be titered and sequenced if desired. The rest of the eluate was amplified (see amplification of phage library section). Once amplified, the eluate was also titered. Determine the concentration of amplified phages by counting the blue plaques in titering as described. Dilute the amplified library to contain 2×10^11 phages in 1 mL of TBS (as little as 10^9 plaque forming units per ml can be used if there is not enough). A second poly-L-lysine 12-well plate was then coated with the target receptors to allow for a second round of biopanning carried out using the same steps except that the Tween-20 concentration in the wash steps was raised to 0.5% (v/v). The eluate from the second round was then amplified, titered and used in an additional 3rd round of panning on newly receptor coated plates. […]

T1 sequence (P36894 24-152 limits assumed): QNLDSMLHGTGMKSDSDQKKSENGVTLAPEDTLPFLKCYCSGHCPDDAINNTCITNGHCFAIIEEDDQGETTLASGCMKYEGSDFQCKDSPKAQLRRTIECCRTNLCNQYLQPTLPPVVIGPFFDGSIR

Row | Sequence | Relative binding strength in ELISA to BMPR1A (BMPR1A) | Binding to BMPR2 found by biopanning (frequency among sequenced plaques) (BMPR2)
1 | SGTQDSMVGWNK (Completely synthesized in the lab - Ph.D.-12 Phage Display Peptide Library Kit (New England Biolabs)) | best binders | showed up as a result of biopanning on both BMPR1A alone and BMPR2 alone; also recorded: discovered to bind
2 | VHVPLHRGAVSA (Completely synthesized in the lab - Ph.D.-12 Phage Display Peptide Library Kit (New England Biolabs)) | best binders | discovered to bind
